Test: label from the status in PepcDB records

| Sequence | protein production |
| --- | --- |
| NENPDKPTDDVNYNMNEPRLASTLRGGLIIEGNVEQRLKPLQIDFYSQMTVDGGGWGTKNYIQDDEWNNLVWEEYLKQIASINIVIRSLTEKDKDAYANTIAFARIWRVYVHTLAADKFGPMPFPAYEIVEANPPYKSLKDIYDEYFRELDAAINGFNDSAQPIFSDAGIDLIYKNDVSKWKRFANSLRLRLAVRLTEVDQEKCIAEANAAISSPAGLISDKADNAYMPPKADGSWGQDYNYTMFQITWSGPICMSKSVEKLVTNIGGVAWPQGVVNQTSGVAVSSVHPEKVDPRAPKIFQPGIENGDWKGLVYGPKAEEANTGIYQSKQCAELGFIIKDGYPYKSRPYDLFLSEEVHFLKAELYARGFIAGDAKSEYEAGVRASFATWGVTSEVDDYLTSTEKNEAGTSARYDDQQGAGNTALEKIITQKYIAGIPDLAQEGWNDKRRLNLPRLDVAVYRDQAVYNNNDKDILKSANFIKRMRYPTKESLINATEYEKGKSMLGGKGDIVSTPLWWDKNSNYCTSSK | not failed |
| MSDSKFLRGTLIVTLGTFLVKFLGMIYVFPFHALVGTEGGTLYTYGYIPYTIFLSIATAGVPLAVSKFVSKYNALGDYKTSRRMFRSGMVMMIVTGVLSFLVLYMTAPLFAEAMLGKQSVHSNIGEVTTIIRLVSFALIVVPAASLIRGYFQGHQSMGPTTVSQIIEQIIRIVFLLAGSFIVIKVLGGTVATAVGVATFAAFVSAVGALGVLIWYWLKRKKHLDQYLIEQTALESTVSTVQLFKELFAYAIPYVVIGLTIPLYQQIDTLTFNSIMQAIGQGDIAERALGIFTMWTHKLIMIPVSLATAFSLTLVPAITKSFTEKQYRYLKLQITQTFQANMFLTLPAVVGISSLAYPIYTAFYDSDPLGGQVLMWYAPVALLFALFTVTAAILQGINQQKHAIIALIMGVILKFVCNVIFIRYFGTVGAILATAVGFLVSVWYTNQQIKKYAHYSFGVVYKRTFQIAVLTLVMVVTVKLSQWILSFMISPDGRMGALITVAICAGIGGLVYGLLAIRTGVLERVFGGEALEKIQRKLGNRFKIKLKSKGA | failed |
| MDVYHDGACPEVKPVDNFDWSQYHGKWWEVAKYPSPNGKYGKCGWAEYTPEGKSVKVSRYDVIHGKEYFMEGTAYPVGDSKIGKIYHSRTVGGYTKKTVFNVLSTDNKNYIIGYSCRYDEDKKGHWDHVWVLSRSMVLTGEAKTAVENYLIGSPVVDSQKLVYSDFSEAACKVNNSNWSHPQFEK | not failed |
| MANIAVQRIKREFKEVLKSEETTKNQIKVDLVDENFTELRGEIAGPPDTPYEGGRYQLEIKIPETYPFNPPKVRFITKIWHPNISSVTGAICLDILKDQWAAAMTLRTVLLSLQALLAAAEPDDPQDAVVANQYKQNPEMFKQTARLWAHVYAGAPVSSPEYTKKIENLCAMGFDRNAVIVALSSKSWDVETATELLLSN | not failed |
| MLKHFGSKVRNLRVTRNITREDFCGDETELSVRQLARIESGQSIPNLTKAHYIAKQLNVKLDILTGGESLELPKRYKELKYLILRIPTYADAERLKLRECQFDHIFEEFYDNLPEDECLAIDSLQAKFEVYQTGDINFGVEVLCECFDKVKYKEKYTLNDLIIIDLFLTCAVVSKFNNRAFTKEVFQTICKTLISQNHKLTAEDLFWFNHVLLNCVFVGLCLNSEECLAEMLEVSRQTMVSTHDFHKMPLYFMYQWKYFITIDNDIKSAENAYQQSIMFSKMIDDKHLIKKLELEWQEDITGH | failed |
| MRFSLFVHMERVSDQQTQKQLYDEMIELCQIADRGGMHAIWTGEHHAMNFTIAPNPFLNIADLANKTKHVRLGTGTVVAPFWHPIKLAGEAAMTDIISNGRLDIGIARGAYSFEYERMVPGMDAWSAGQRLREMIPAIKNLWKGDYEHNGEFWQFPKTTSAPQPLQQPNPPIWVAARDPNSHEFAVQNGCNVQVTPLHLGDEEVEKLMGHFNSACEKFQDIERPEIMLLRHTYVADSEEDAQVAANEMNVFYNYFGAWFKNEREINQGLIAPLSDEEIAAHPFYTPEAMRKNNVIGQAQEVIDRLKAYEAMGYDEYSFWIDTGMSFERKKASLERMINEVMPAFSESKVDRRHATISAVY | failed |

Reference: a protein production outcome set (Wang et al. 2014)
